# Article PMC3366790 (The Journal of Biological Chemistry, 2012)
# T1: full-length CDC34 with C191S/C223S substitutions (human, UniProt P49427 1-236, C191S | C223S)
# T1 sequence: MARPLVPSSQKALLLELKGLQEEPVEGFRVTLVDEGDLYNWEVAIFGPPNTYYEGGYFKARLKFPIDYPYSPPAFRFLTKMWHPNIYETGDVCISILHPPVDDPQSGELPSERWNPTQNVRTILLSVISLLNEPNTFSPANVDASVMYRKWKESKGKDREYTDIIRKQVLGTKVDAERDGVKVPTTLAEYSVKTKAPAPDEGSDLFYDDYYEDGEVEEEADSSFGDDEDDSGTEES
# B1: sRbx1^12–108 (solubilized human Rbx1/ROC1 residues 12–108 with W27S, V30S, L32Q, W33S) (domain or fragment)
# chain: not shown
# Target: T1, full-length CDC34 with C191S/C223S …
# Assay: NMR titration
binder,measurement,value
B1,Kd,> 1 mM
